This data set addresses hAGT C145S (O6-alkylguanine-DNA alkyltransferase, inactive mutant) (human, UniProt P16455 1-207, C145S). The data set can be described thus: EMSA. For orientation: Mobility shift assays separate free from complexed probe on a gel.

Sequence of hAGT C145S (O6-alkylguanine-DNA alkyltransferase, inactive mutant) (P16455 whole entry C145S): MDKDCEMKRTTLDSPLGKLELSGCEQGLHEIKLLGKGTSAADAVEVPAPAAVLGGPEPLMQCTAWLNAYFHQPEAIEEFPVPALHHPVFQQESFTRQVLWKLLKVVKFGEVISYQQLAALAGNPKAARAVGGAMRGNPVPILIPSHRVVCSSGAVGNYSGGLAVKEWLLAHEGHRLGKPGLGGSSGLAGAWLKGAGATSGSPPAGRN

B1: Control (non-cross-linked duplex) (dsDNA)
DNA 1: CGATGTCATCG
DNA 2: CGATGACATCG
A word on the Kd: it is the concentration at which binding is half-saturated. A higher Kd goes with weaker binding. The molecule B1 displayed a Kd of 8.36 ± 1.11 µM.

These data come from PMC3021135.
